This is an account of results in patent publication US20100266532A1, “METHODS FOR INHIBITING SCARRING” (Renovo Limited, priority 2007, published 2010).

The subject of assay [1] is 1 centimetre experimental wound. The experiment in a line: Clinical trial, single intradermal injection, lay panel VAS scar scoring (ToScar). The format is in vivo, human. The procedure: FIG. 1 illustrates data from a clinical trial conducted by the inventors to generate a dose response curve indicative of the anti-scarring effect achieved using various different doses of TGF-β3 administered in a single incidence of treatment. Either TGF-β3 or placebo were administered as a single intradermal injection to a 1 centimetre experimental wound. […] To test the treatment effect, ToScar of the TGFβ3 scar was subtracted from the anatomically matched Placebo ToScar on the other arm on each subject. ToScar was calculated as the sum of VAS scores (mm) from week 6 and months 3, 4, 5, 6 and 7. The scars were scored by an independent lay panel at 6 time points after dosing (week 6, months 3-7) using a 100 mm VAS line.

The next assay has as its system human wounds. The experiment in a line: Human study, two incidences of treatment approximately 24 hours apart, lay panel VAS scar scoring and macroscopic images. The assay is classed as in vivo. The method, then: In this study, control treatments using TGFβ3 and Placebo were administered in two incidences of treatment (each by intradermal injection), the first prior to wounding and the second approximately 24 hours after wounding. […] To test the effect of control treatment with TGF-β3, ToScar of the TGFβ3 scar was subtracted from the anatomically matched Placebo ToScar on the other arm on each subject. ToScar was calculated as the sum of VAS scores (mm) from week 6 and months 3, 4, 5, 6 and 7. The scars were scored by an independent lay panel at 6 time points after dosing (week 6, months 3-7) using a 100 mm VAS line.
The macroscopic images are from within subject scars produced on healing of placebo treated and TGFβ3 control treated wounds (dosed twice with 50 ng, 200 ng or 500 ng/100 μl TGFβ3 per cm of wound margin in two incidences of treatment approximately 24 hours apart) in a clinical trial conducted by the inventors. The same amount of TGF-β3 was administered in each incidence of treatment, and the amounts used are shown in the captions (50 ng/100 μl TGFβ3 per cm of wound margin shown top left, with placebo from the same subject top right; 200 ng/100 μl TGFβ3 per cm of wound margin shown middle left, with placebo from the same subject middle right; and 500 ng/100 μl TGFβ3 per cm of wound margin shown bottom left, with placebo from the same subject bottom right).
TGFβ3 and Placebo were administered by means of intradermal injection in two incidences of treatment, the first prior to wounding and the second approximately 24 hours later. […] The scars were scored by an independent lay panel at 6 time points after dosing (week 6, months 3-7) using a 100 mm VAS line.

The subject of assay [2] is scars produced on healing of wounds. The experiment in a line: Profilometry analysis of silicone moulds from scars, dosed twice approximately 24 hours apart. The format is in vivo, human. An excerpt:
Note that this is not a method of treatment in accordance with the invention, but (along with FIG. 6) serves to provide comparative data illustrating the surprising effectiveness of a method of treatment in accordance with the invention.

[3] abbreviates: dosed twice with 50 ng/100 μl per cm approximately 24 hours apart.
Setting [4] is: dosed twice with 200 ng/100 μl per cm approximately 24 hours apart.

B1: TGF-β3: well-known anti-scarring growth factor, Sequence ID No. 1; labelled "Juvista" in FIGS. 8 and 9 (protein, listed as Homo sapiens)
chain: ALDTNYCFRNLEENCCVRPLYIDFRQDLGWKWVHEPKGYYANFCSGPCPYLRSADTTHSTVLGLYNTLNPEASASPCCVPQDLEPLTILYYVGRTPKVEQLSNMVVKSCKCS
For the molecule B1, in assay [1] (single application of 50 ng, 200 ng or 500 ng/100 μl per cm of wound margin), the inhibition of scarring entry is “effectively inhibited”. The “scar improvement (placebo ToScar minus TGFβ3 ToScar, sum of VAS scores), average” value in assay [1] (single application, 200 ng/100 μl per cm of wound margin, maximum improvement) is recorded as > 50 mm. In assay [1] (single application, 500 ng/100 μl per cm of wound margin, versus 200 ng), the “drug efficacy at top of dose range” value is “reduction in drug efficacy”. Further, in the assay with human wounds (500 ng in each of two incidences of treatment separated by 24 hours), the “effectiveness relative to other doses” value is recorded as “notably more effective than the others”. The “effectiveness relative to other doses (mean VAS scores over time)” value in the assay on human wounds (500 ng per centimetre in each incidence of treatment, approximately 24 hours apart) was “surprisingly more effective than the other methods of treatment”. The “inhibition of scarring, macroscopic images” value with human wounds (500 ng/100 μl per cm twice approximately 24 hours apart (highest dose), versus 50 and 200 ng) is recorded as “greatest inhibition of scarring achieved”. In the assay with human wounds (two applications of 5, 50, 200 and 500 ng/100 μl per cm, prior to and approximately 24 hours post-wounding), the inhibition of scarring entry was “effectively inhibited”. For the same molecule, in the assay on human wounds (two applications of 5, 50, 200 or 500 ng/100 μl per cm, prior to wounding and approximately 24 hour post-wounding, week 6 to month 7), the “inhibition of scarring (mean VAS scores over time)” value is reported as “scarring is inhibited”. In addition, in assay [2] (setting [3]), the “reduction in scar surface area compared to placebo” value turned out to be 30.21% and the scar surface area stood at 12.823 mm^2. For the same molecule, in assay [2] (setting [4]), the “reduction in scar raised volume compared to placebo” value is 73.33%, the “reduction in scar surface area compared to placebo” value was determined as 75.19%, the scar raised volume is on record as 0.0008 mm^3 and the scar surface area is listed as 3.532 mm^2. Further, in assay [2] (dosed twice with 500 ng/100 μl per cm approximately 24 hours apart), the “inhibition of scarring, 3-dimensional simulations” value is “Maximal inhibition of scarring”.
